Test results from patent US11918645B2, “Vaccines against hepatitis B virus” (priority 2012, dated 2024).

Key:
[1] = biological target: T1, HLA-DR15 (α1*01:01;β1*15:01) (Homo sapiens, UniProt P01903+P01911); assay: ProImmune REVEAL MHC class II binding assay of long peptides; conditions: percentage of the signal of the positive control peptide; positive binding score >=15%
T1 construct: purchased ProImmune
Description: (§1) The highly frequent HLA class II alleles HLA-DR1 (α1*01:01;β1*01:01), HLA-DR15 (α1*01:01;β1*15:01), HLA-DR3 (α1*01:01;β1*03:01), HLA-DR4 (α1*01:01;β1*04:01), HLA-DR11 (α1*01:01;β1*11:01), HLA-DR13 (α1*01:01;β1*13:01), and HLA-DR7 (α1*01:01;β1*07:01) were selected. Each peptide was given a score relative to the positive control peptide, which is a known T-cell epitope. The score of the test peptide is reported quantitatively as a percentage of the signal generated by the positive control peptide, and the peptide is indicated as having a putative pass or fail result. Good binders are considered to be those peptides with scores >=15% of the positive control as defined by Proimmune.

[2] = biological target: T2, HLA-DR7 (α1*01:01;β1*07:01) (Homo sapiens, UniProt P01903+P01911, A100R/A102G/A103Q/D57E/D86V/E43K/F76Y/K127E/L162R/M171V/P40G/Q125H/Q99D/R195Q/R33Q/R42Y/R54Q/S133A/S149N/S66F/T210M/V115G/Y107V/Y59L/Y89S); assay: as above; conditions: percentage of the signal of the positive control peptide; positive binding score >=15%
T2 construct: purchased ProImmune
Description: as §1

[3] = biological target: T3, HLA-DR13 (α1*01:01;β1*13:01) (Homo sapiens, UniProt P01903+P01911, A100E/A169T/K41T/L162R/M171V/P40S/Q125H/Q178H/Q39Y/Q99D/R42S/S66N/W38E/Y61H); assay: as above; conditions: percentage of the signal of the positive control peptide; positive binding score >=15%
T3 construct: purchased ProImmune
Description: The highly frequent HLA class II alleles HLA-DR1 (α1*01:01;β1*01:01), HLA-DR15 (α1*01:01;β1*15:01), HLA-DR3 (α1*01:01;β1*03:01), HLA-DR4 (α1*01:01;β1*04:01), HLA-DR11 (α1*01:01;β1*11:01), HLA-DR13 (α1*01:01;β1*13:01), and HLA-DR7 (α1*01:01;β1*07:01) were selected. Each peptide was given a score relative to the positive control peptide, which is a known T-cell epitope.

HLA class I alleles = assay: ProImmune REVEAL MHC class I binding assay, summary over the seven alleles; parameters: species or system human; conditions: for Number of allele (b): number of class I alleles for which positive binding was detected; for Number of HLA binders (a): total number binding epitopes detected for each long peptide, seven class I alleles
Description: (§2) The number of HLA class I binding registers contained in each peptide may be determined by determining the ability of the peptide to bind to a range of frequently occurring HLA class I molecules. HLA class I binding may be measured using the ProImmune REVEAL® MHC-peptide Binding Assay (ProImmune Ltd, Oxford, UK). The REVEAL™ MHC peptide-binding assay measures the ability of each peptide to stabilize the ternary MHC-peptide complex for […], HLA-A*0201, HLA¬A*0301, HLA-A*2402, HLA-B*0702, HLA-B*0801, HLA-B*3501 representative of main HLA class I supertypes. Each tested peptide is given a score relative to a pass/fail control peptide and also compared to a positive control peptide.
(§3) Detection is based on the presence or absence of the native conformation of the MHC-peptide complex. The highly frequent HLA class I alleles (HLA-A*0201, A*0301, A*1101, A*2402, B*0702, B*0801, and B*3501) were selected. Binding to MHC molecules was compared to that of a known T-cell epitope, a positive control peptide, with very strong binding properties. […] The score of the test peptide is reported quantitatively as a percentage of the signal generated by the positive control peptide, and the peptide is indicated as having a putative pass or fail result. Good binders are considered to be those peptides with scores 45% of the positive control as defined by ProImmune.

HLA-A*0301 = biological target: T4, HLA-A*0301 (Homo sapiens, UniProt P04439); assay: ProImmune REVEAL MHC class I binding assay of nonamers; conditions: score as % of positive control peptide
T4 construct: purchased ProImmune
Description: as §2, §3

HLA-B*3501 = HLA-B*3501 (Homo sapiens, UniProt P01889, A329T/A93T/A95T/C349S/D201E/D98Y/E176V/E187L/E204Q/E69T/I218V/K202T/L119I/Q94N/R155S/R180L/S121R/S35A/S48A/T118I/V127L/V306I/V36M/Y140S/Y91F); assay: as above; conditions: score as % of positive control peptide
Description: as §2, §3

HLA-B*0801 = HLA-B*0801 (Homo sapiens, UniProt P01889, A93T/A95T/D138N/E176V/E187T/K202T/Q94N/R180D/S35A/V36M/Y33D/Y91F); assay: as above; conditions: score as % of positive control peptide
Description: as §2, §3

HLA-B*0702 = biological target: T5, HLA-B*0702 (Homo sapiens, UniProt P01889); assay: as above; conditions: score as % of positive control peptide
T5 construct: purchased ProImmune
Description: as §2, §3

HLA-A*0201 = HLA-A*0201 (Homo sapiens, UniProt P04439, D140Y/D185E/D98H/E176V/E277Q/G131W/G231S/I119V/I121R/I166T/I218V/L300P/L318F/N151K/N90K/P208A/P217A/Q86G/Q94H/R138H/R169H/T345S); assay: as above; conditions: score as % of positive control peptide
Description: as §2, §3

HLA-A*2402 = HLA-A*2402 (Homo sapiens, UniProt P04439, D101N/D140Y/D185E/E176V/E190D/F33S/G103R/G107R/I119L/I121M/I306V/K335N/L105A/L180Q/L300P/N151K/N90K/Q86E/Q94H/R106L/R138H/R89G/T104I/T345S/V100E/W191G/Y123F); assay: as above; conditions: score as % of positive control peptide
Description: as §2, §3

HLA-A*1101 = biological target: T6, HLA-A*1101 (Homo sapiens, UniProt P04439, A114D/D185E/E176A/F33Y/L180Q/S129P/T187R); assay: as above; conditions: score as % of positive control peptide
T6 construct: purchased ProImmune
Description: as §2, §3

T3 sequence (P01903 26-216, other chains not shown): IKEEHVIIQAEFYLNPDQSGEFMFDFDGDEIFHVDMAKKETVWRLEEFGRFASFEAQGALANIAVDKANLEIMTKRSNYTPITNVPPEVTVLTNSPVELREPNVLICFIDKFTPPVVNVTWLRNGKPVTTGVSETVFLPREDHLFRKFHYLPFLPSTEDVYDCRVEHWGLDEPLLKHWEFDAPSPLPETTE

Substance	binding score, HLA-DR15 (α1*01:01;β1*15:01) [1]	binding score, HLA-DR7 (α1*01:01;β1*07:01) [2]	binding score, HLA-DR13 (α1*01:01;β1*13:01) [3]	Number of allele (b) (HLA class I alleles)	Number of HLA binders (a) (HLA class I alleles)	Number of nonamers having a binding score >= 45%, HLA-A*0301 (HLA-A*0301)	Number of nonamers having a binding score >= 45%, HLA-B*3501 (HLA-B*3501)	Number of nonamers having a binding score >= 45%, HLA-B*0801 (HLA-B*0801)	Number of nonamers having a binding score >= 45%, HLA-B*0702 (HLA-B*0702)	Number of nonamers having a binding score >= 45%, HLA-A*0201 (HLA-A*0201)	Number of nonamers having a binding score >= 45%, HLA-A*2402 (HLA-A*2402)	Number of nonamers having a binding score >= 45%, HLA-A*1101 (HLA-A*1101)
NP113: unconjugated HBV long peptide, polymerase region 96-130 of virtual HBV proteome (VGPLTVNEKRRLKLIMPARFYPNVTKYLPLDKGIK; HBV CONSENSUS SEQUENCE)	28.04%	99.17%	0.00%	7	20	3	2	3	2	2	3	5
NP151: unconjugated HBV long peptide, polymerase region 134-168 (PEHVVNHYFQTRHYLHTLWKAGILYKRETTRSASF; HBV CONSENSUS SEQUENCE)	38.96%	19.41%	0.00%	6	21	4	0	4	3	3	4	3
NP753(K): unconjugated HBV long peptide, core KK + 738-770 (S to T at 743) + KKK (KKKEFGATVELLSFLPSDFFPSVRDLLDTASALYRKKK; HBV CONSENSUS SEQUENCE)	0.00%	0.00%	0.00%	6	10	0	1	1	1	3	3	1
